Test results taken from patent publication US20240376151A1, “STAPLED PEPTIDES AND METHODS THEREOF” (FOG PHARMACEUTICALS, INC., priority 2022, published 2024).

Experiments:
CUL1 = biological target: T1, CUL1 (Homo sapiens, UniProt Q13616, L371D/V367R); assay: Naive Library Presenter Screening (phage, NGS), CUL1; format: binding; settings: for interaction data at Target Concentration 10: CUL1 target concentration 10 nM; for interaction data at Target Concentration 30: CUL1 target concentration 30 nM; for interaction data at Target Concentration 100: CUL1 target concentration 100 nM; for interaction data at Target Concentration 300: CUL1 target concentration 300 nM; for interaction data at Target Concentration 1000: CUL1 target concentration 1000 nM
T1 construct: CUL1 (Uniprot ID: Q13616, residue 15-410, V367R/L371D); GST-TEV (N, cleaved yes); made in house; host or cells: E. coli BL21 CodonPlus

Expi293 cells [1] = assay: Measurement of the Cell Association of Helicons (mass spectrometry quantification in cells after treatment and wash); format: cell-based; settings: percentage of Helicons in cells after treatment and wash, 22 hours, n = 2, mean ± SD
Experimental: All samples were analyzed using mass spectrometry.

Expi293 cells [2] = assay: CellTiter-Glo cell health (ATP levels) during cell association assay; format: cell-based; settings: reflective of cell health, luminescence Tfinal (22 hours) / Tinitial
CUL4B = biological target: T2, CUL4B (Homo sapiens, UniProt Q13620, L520D/V516R); assay: Naive Library Presenter Screening (phage, NGS), CUL4B; format: binding; settings: for interaction data at Target Concentration 10: CUL4B target concentration 10 nM; for interaction data at Target Concentration 30: CUL4B target concentration 30 nM; for interaction data at Target Concentration 100: CUL4B target concentration 100 nM; for interaction data at Target Concentration 300: CUL4B target concentration 300 nM; for interaction data at Target Concentration 1000: CUL4B target concentration 1000 nM
T2 construct: GST-TEV (N, cleaved yes); made in house; host or cells: E. coli BL21 CodonPlus
T2 sequence (Q13620 206-557 V516R/L520D): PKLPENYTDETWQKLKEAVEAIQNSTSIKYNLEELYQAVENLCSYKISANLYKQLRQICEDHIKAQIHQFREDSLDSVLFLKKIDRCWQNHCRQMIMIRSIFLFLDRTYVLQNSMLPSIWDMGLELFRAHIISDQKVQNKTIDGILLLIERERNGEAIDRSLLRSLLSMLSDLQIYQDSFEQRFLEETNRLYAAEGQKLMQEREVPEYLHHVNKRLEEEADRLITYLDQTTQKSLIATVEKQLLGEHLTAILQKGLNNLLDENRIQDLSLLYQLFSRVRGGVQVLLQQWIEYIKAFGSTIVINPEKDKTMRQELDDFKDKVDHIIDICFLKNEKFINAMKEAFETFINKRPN

T1 sequence (Q13616 15-410 V367R/L371D): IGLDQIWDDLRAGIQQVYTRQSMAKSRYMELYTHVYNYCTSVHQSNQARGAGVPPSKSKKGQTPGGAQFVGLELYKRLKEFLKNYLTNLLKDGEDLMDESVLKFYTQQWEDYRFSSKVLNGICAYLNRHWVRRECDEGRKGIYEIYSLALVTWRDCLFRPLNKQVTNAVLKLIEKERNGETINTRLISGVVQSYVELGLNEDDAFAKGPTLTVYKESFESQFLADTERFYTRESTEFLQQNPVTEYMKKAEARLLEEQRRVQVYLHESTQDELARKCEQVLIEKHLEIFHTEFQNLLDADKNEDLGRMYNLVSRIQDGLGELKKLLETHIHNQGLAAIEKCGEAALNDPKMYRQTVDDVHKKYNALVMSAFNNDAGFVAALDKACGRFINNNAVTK

Compound	interaction data at Target Concentration 10 (CUL1)	interaction data at Target Concentration 30 (CUL1)	interaction data at Target Concentration 100 (CUL1)	interaction data at Target Concentration 300 (CUL1)	interaction data at Target Concentration 1000 (CUL1; first column)	interaction data at Target Concentration 1000 (CUL1; second column)	Helicon in cells ± SD (%) (Expi293 cells [1])	CellTiter-Glo fold change ± SD (Expi293 cells [2])	interaction data at Target Concentration 10 (CUL4B)	interaction data at Target Concentration 30 (CUL4B)	interaction data at Target Concentration 100 (CUL4B)	interaction data at Target Concentration 300 (CUL4B)	interaction data at Target Concentration 1000 (CUL4B; first column)	interaction data at Target Concentration 1000 (CUL4B; second column)
DPAEFVCDWAALACLVD	4	32	183	247	517	300								
DPAVMECDWAATICDIF	0	2	154	402	477	419								
CC[C@H](C)[C@H](NC(C)=O)C(=O)N[C@@H](CC(C)C)C(=O)N[C@@H](CCC(N)=O)C(=O)N[C@]1(C)CCCCCCC=CCCC[C@@](C)(C(=O)N[C@@H](Cc2c[nH]cn2)C(=O)N[C@@H](Cc2ccc(O)cc2)C(=O)N[C@@H](CCC(N)=O)C(N)=O)NC(=O)[C@H](CO)NC(=O)[C@H](Cc2ccccc2)NC(=O)[C@H](C)NC(=O)[C@H](C)NC(=O)[C@H](CCC(=O)O)NC(=O)[C@H](Cc2ccc(O)cc2)NC1=O (single isomer, unassigned) [FP07859, Ac-Ile-Leu-Gln-R8-Tyr-Glu-Ala-Ala-Phe-Ser-S5-His-Tyr-Gln-NH2]							0.1 ± 0.0%	1.2 ± 0.02						
CCCC[C@H](NC(=O)[C@H](Cc1ccc(O)cc1)NC(=O)[C@H](CCC(N)=O)NC(=O)[C@]1(C)CCCC=CCCCCCC[C@@](C)(NC(=O)[C@H](CCC(=O)O)NC(=O)[C@H](CC(C)C)NC(=O)[C@@H](NC(C)=O)[C@@H](C)CC)C(=O)N[C@@H](Cc2ccc(O)cc2)C(=O)N[C@@H](CCC(=O)O)C(=O)N[C@@H](C)C(=O)N[C@@H](C)C(=O)N[C@@H](Cc2ccccc2)C(=O)N[C@@H](CCC(=O)O)C(=O)N1)C(N)=O (single isomer, unassigned) [FP08017, Ac-Ile-Leu-Glu-R8-Tyr-Glu-Ala-Ala-Phe-Glu-S5-Gln-Tyr-nLeu-NH2]							0.6 ± 0.1%	1.2 ± 0.01						
CCCC[C@H](NC(=O)[C@@H](NC(C)=O)C(C)C)C(=O)N[C@@H](CCC(N)=O)C(=O)N[C@]1(C)CCCCCCC=CCCC[C@@](C)(C(=O)N[C@@H](Cc2c[nH]cn2)C(=O)N[C@@H](Cc2ccc(O)cc2)C(=O)N[C@H](C(N)=O)C(C)C)NC(=O)[C@H]([C@@H](C)CC)NC(=O)[C@H](Cc2ccccc2)NC(=O)[C@H](C)NC(=O)[C@H](C)NC(=O)[C@H](CCC(=O)O)NC(=O)[C@H](Cc2ccc(O)cc2)NC1=O (single isomer, unassigned) [FP07864, Ac-Val-nLeu-Gln-R8-Tyr-Glu-Ala-Ala-Phe-Ile-S5-His-Tyr-Val-NH2]							18.5 ± 11.4%	1.1 ± 0.05						
DPAYDWCDVAALFCLVE	0	0	57	36	57	151								
DPAEQECDHAALWCIVA	14	19	340	937	1137	743								
DPAEQMCDIAAVWCLAH	0	0	35	135	151	88								
DPAEAACDIAALMCIID	15	13	65	211	203	195								
DPAYFACDIAALMCTVH	0	2	131	135	403	120								
DPADRQCIFAAWMCEAF									0	0	3	9	34	0
DPAEVHCDMAALYCIIR	3	7	65	242	366	119								
DPAQRACQFAAWICERF									1	0	13	56	73	0
DPAMLQCDMAALWCMVS	1	3	77	64	143	126								

Second part, the compound after the results:

interaction data at Target Concentration 10 (CUL1)	interaction data at Target Concentration 30 (CUL1)	interaction data at Target Concentration 100 (CUL1)	interaction data at Target Concentration 300 (CUL1)	interaction data at Target Concentration 1000 (CUL1; first column)	interaction data at Target Concentration 1000 (CUL1; second column)	Helicon in cells ± SD (%) (Expi293 cells [1])	CellTiter-Glo fold change ± SD (Expi293 cells [2])	interaction data at Target Concentration 10 (CUL4B)	interaction data at Target Concentration 30 (CUL4B)	interaction data at Target Concentration 100 (CUL4B)	interaction data at Target Concentration 300 (CUL4B)	interaction data at Target Concentration 1000 (CUL4B; first column)	interaction data at Target Concentration 1000 (CUL4B; second column)	Compound
0	0	32	95	114	71									DPAEMQCDYAAILCIVR
0	7	61	73	111	119									DPAQILCDLAALYCVVE
								0	0	15	31	18	0	DPATTECILAAWICDRF
								0	0	0	6	17	0	DPADRWCELAAWICDEF
								1	1	15	248	340	0	DPADRYCDMAAWVCERF
1	1	233	428	586	468									DPAQNDCEVAAFFCWLD
								0	0	1	31	9	0	DPATRMCELAAWTCEVW
0	0	28	83	80	61									DPAIIQCDQAALWCVVT
